Measured values published in patent US20240342244A1, “Isthmin Protein Therapeutics for the Treatment of Non-Alcoholic Fatty Liver Disease” (The Board of Trustees of the Leland Stanford Junior …, priority 2021, published 2024).

Key:
[1] = system: pAKT^S473; experiment: pAKT S473 signaling in 3T3-F442A cells (phosphokinase array, western blot); format: cell-based
Experimental: (§1) Western blots and molecular analyses. For western blotting, homogenized tissues or whole-cell lysates, samples were lysed in RIPA buffer containing protease inhibitor cocktail (Roche) and phosphatase inhibitor cocktail (Roche). Cell lysates were centrifuged at 14,000×g for 15 min and supernatants were prepared in 4×LDS Sample Buffer (Invitrogen) and separated by SDS-PAGE and transferred to Immobilon 0.45 μm membranes (Millipore). For Western blotting of plasma samples, 1 μl of plasma was prepared in 2× sample buffer (Invitrogen) with reducing agent, boiled, and analyzed using Western blot against indicated antibody. Protein kinase array (R&D systems ARY003B) was performed according to the manufacturers' description. All antibodies used in this paper are described in STAR methods.

[2] = system: pAKT^S473; experiment: pAKT S473 western blot in primary mouse adipocytes; format: cell-based
Experimental: Mouse and human pre-adipocytes culture and differentiation. Inguinal fat pads from 4-8 week old C57BL/6J male and female mice were dissected and mechanically digested for 10 min using spring scissors. Digested tissues were incubated in WAT isolation buffer (10 ml PBS, 2.4 U/ml dispase II (#04942078001, Roche), 10 mg/ml collagenase D (#11088858001, Roche) at 37° C. for 45 min. 20 mL growth media was added and the tissue suspension was filtered through a 100-μm cell strainer and centrifuged at 600×g for 5 min. The cell pellets were resuspended in 20 mL growth media, filtered through a 40-μm cell strainer, centrifuged at 600×g for 5 min, resuspended in 10 mL growth media, and plated in 10-cm collagen-coated dishes. The cells were cultured in growth media (DMEM/F-12 Glutamax, Thermo Fisher Scientific #10565018) supplemented with 10% fetal bovine serum. Two days post-confluency, differentiation was induced with growth media containing 1 μM rosiglitazone, 0.5 mM isobutylmethylxanthine, 1 μM dexamethasone, 5 μg/mL insulin. After two days, cells were re-fed with growth media containing 1 μM rosiglitazone and 5 μg/mL insulin. […]
Western blots and molecular analyses. […] For Western blotting of plasma samples, 1 μl of plasma was prepared in 2× sample buffer (Invitrogen) with reducing agent, boiled, and analyzed using Western blot against indicated antibody. […]

[3] = system: pAKT^S473; experiment: pAKT S473 western blot in human SGBS adipocytes and human primary skeletal muscle cells; format: cell-based
Experimental: as §1

[4] = system: pAKT^S473; experiment: pAKT S473 western blot in C2C12 skeletal muscle cells; format: cell-based; conditions: 100 nM, 5 min
Experimental: as §1

[5] = system: pAKT^T308, S6^S235/S236, PRAS40^Thr246, ERK1/2, PKA, PDK1, GSK3β; experiment: Time-course western blot of intracellular signaling pathways in 3T3-F442A cells; format: cell-based
Experimental: as §1

[6] = system: pTyr; experiment: Western blot of pTyr levels; format: cell-based; conditions: 100 nM; 2 minutes
Experimental: as §1

[7] = system: SREBP1c, FAS, ACC; experiment: Lipogenic protein and gene expression in AML12 hepatocytes; format: cell-based, mouse
Experimental: (§2) Gene expression analysis. Total RNA from cultured cells or tissues was isolated using TRIzol (Thermo Fischer Scientific) and Rneasy mini kits (QIAGEN). RNA was reverse transcribed using the ABI high capacity cDNA synthesis kit. For qRT-PCR analysis, cDNA, primers and SYBR-green fluorescent dye (ABI) were used. Relative mRNA expression was determined by normalization with Cyclophilin levels using the ΔΔCt method.
as §1

[8] = system: srebp1c; experiment: Lipogenic gene and SREBP-1c protein expression in primary adipocytes; format: cell-based, mouse
Experimental: as §2, §1

[9] = system: AML12 hepatocytes; experiment: Protein synthesis assay (3H-leucine incorporation into proteins) in AML12 hepatocytes; format: cell-based, mouse; conditions: 24 h
Experimental: Protein synthesis Assay. AML12 hepatocytes were washed twice with warm PBS and starved in serum-free media overnight. Indicated concentrations of insulin with or without ISM1 and 0.25 uCi of [3H]-Leucine (#NET460250UC, PerkinElmer) were added at the same time. After a 24 h incubation, cells were washed three times with ice cold PBS and lysed in RIPA buffer containing protease inhibitor cocktail (Roche). After 15 min centrifugation at 14000×g, supernatants were transferred to new tubes. Trichloroacetic acid was added to the protein extracts at a final concentration of 10% and incubated on ice for 1 h. After a 15 min centrifugation at 14000×g, pellets were washed with cold acetone, diluted in 10M NaOH and transferred to scintillation vials. The radioactivity was measured by liquid scintillation counting.

[10] = insulin 1 nM up to 100 nM with 25 nM or 50 nM ISM1

B1: ISM1: recombinant mouse ISM1 protein with a C-terminal myc-his tag generated in mammalian HEK 293 Expi cells (protein, UniProt A2ATD1 30-454, looked up)
Isthmin-1: SDRQDAAAGNNNLNLESDSTSETSFPLSKEAPEEHQVVHQPFPRQRFPPETGHPSLQRDGPRSFLLDLPNFPDLSKADINGQNPNIQVTIEVVDGPDSEAEKDQHPENKPSWSLPAPDWRAWWQRSLSLARTNSGDQDDKYDSTSDDSNFLSVPRGWDRPAPGHRTFETKEQPEYDSTDGEGDWSLWSVCSVTCGNGNQKRTRSCGYACIATESRTCDRPNCPGIEDTFRTAATEVSLLAGSEEFNATKLFEVDMDSCERWMSCKSEFLKKYMHKVINDLPSCPCSYPTEVAYSTADIFDRIKRKDFRWKDASGPKEKLEIYKPTARYCIRSMLSLESTTLAAQHCCYGDNMQLITRGKGAGTPNLISTEFSAELHYKVDVLPWIICKGDWSRYNEARPPNNGQKCTESPSDEDYIKQFQEAREY
modifications: C-terminal myc-His tag
notes: recombinant mouse ISM1 protein with a C-terminal myc-his tag generated in mammalian HEK 293 Expi cells
Q: For B1, which “pAKT^S473 bioactivity compared with commercially available ISM1 protein (R&D systems)” value ([1]; 100 nM, 5 min) is on record?
A: The value was “comparable bioactivities”.

Q: What about the “top hit of phosphokinase array (43 proteins)” value ([1]; 100 nM, 5 min) of the same molecule?
A: The value was “phosphorylated protein kinase B (PKB)/AKT at S473”.

Q: And the “dose at which dose-dependent increase in pAKT^S473 phosphorylation starts” value ([1]; increasing doses, 5 min)?
A: The value was 50 nM.

Q: And the “AKT activity of ISM1 combined with insulin” value [1, 10]?
A: Its value is “additional effect”.

Q: And the “potentiation of insulin on AKT activity” value [1, 10]?
A: Its value is “no evidence of potentiation”.

Q: And the “pAKT^S473 induction” value ([2]; differentiated primary mouse brown adipocytes)?
A: The value was “induced pAKT^S473”.

Q: And the “pAKT^S473 induction” value ([2]; white adipocytes)?
A: Its value is “induced pAKT^S473”.

Q: And the “pAKT^S473 induction” value ([3]; human SGBS adipocytes)?
A: Its value is “induced pAKT^S473”.

Q: And the “pAKT^S473 induction” value ([3]; human primary skeletal muscle cells (HSMC), 100 nM, 5 min)?
A: Its value is “induced pAKT^S473”.

Q: And the “pAKT^S473 induction” value [4]?
A: The value was “induced pAKT^S473”.

Q: What about the “activation of S6^S235/S236 and PRAS40^Thr246” value ([5]; 100 nM, time course) of the same molecule?
A: The value was “time-dependent activation”.

Q: What about the “pAKT^T308 phosphorylation” value ([5]; 100 nM, time course) of the same molecule?
A: Its value is “phosphorylation at pAKT^T308 at all time points”.

Q: What about the ERK1/2 phosphorylation ([5]; 100 nM, vs 20 ng/ml PDGF-ββ) of the same molecule?
A: The ERK1/2 phosphorylation was “does not evoke as robust ERK1/2 phosphorylation as the known mitogen PDGF-ββ”.

Q: And the ERK1/2 phosphorylation ([5]; 200 nM ISM1 vs 100 nM insulin)?
A: The ERK1/2 phosphorylation was “prolonged and more potent phosphorylation of ERK1/2 than insulin”.

Q: What about the “activity on other pathways such as PKA, PDK1 or GSK3P” value ([5]; even at 200 nM doses) of the same molecule?
A: The value was “does not display any activity or displays only weak activity”.

Q: What about the “tyrosine phosphorylation of proteins” value [6] of the same molecule?
A: Its value is “induces phosphorylation of tyrosine residues on proteins >100 kDa in size”.

Q: What about the “SREBP1c cleavage, FAS and ACC protein expression” value ([7]; 50 nM insulin, with or without ISM1, 24 h) of the same molecule?
A: The value was “counteracts the insulin-induced increase in SREBP1c cleavage to the mature form”.

Q: What about the “ChREBPβ and PGC1β gene expression” value ([7]; AML12 hepatocytes) of the same molecule?
A: Its value is “reduced”.

Q: What about the “fas, acc and scd1 gene expression” value ([7]; in the presence of insulin, 6 h) of the same molecule?
A: Its value is “significantly reduced”.

Q: What about the “cleaved SREBP-1c protein levels” value ([8]; insulin-stimulated conditions) of the same molecule?
A: Its value is “potently reduces the cleaved SREBP-1c protein levels”.

Q: And the “srebp1c, acc, fas and ChREBPβ gene expression” value ([8]; insulin-stimulated conditions)?
A: Its value is “suppressing srebp1c and the lipogenesis target genes acc, fas, and ChREBPβ”.

Q: What about the “srebp1c expression under basal conditions” value ([8]; primary adipocytes) of the same molecule?
A: The value was “no induction”.

Q: And the “lipid synthesis versus protein synthesis, side-by-side” value ([9]; 100 nM ISM1 and 50 nM insulin vs 50 nM insulin alone)?
A: Its value is “suppresses lipid synthesis in favor of protein synthesis”.

Q: And the “induction of protein synthesis (H3-leucine incorporation)” value ([9]; combined chronic ISM1 and insulin (50 nM) treatment)?
A: Its value is 2.9 fold.
